Data from IntAct's records for PubMed 31515488.

B1: Caspase recruitment domain-containing protein 9 (Homo sapiens), Q9H257 (parent)
chain: MSDYENDDECWSVLEGFRVTLTSVIDPSRITPYLRQCKVLNPDDEEQVLSDPNLVIRKRKVGVLLDILQRTGHKGYVAFLESLELYYPQLYKKVTGKEPARVFSMIIDASGESGLTQLLMTEVMKLQKKVQDLTALLSSKDDFIKELRVKDSLLRKHQERVQRLKEECEAGSRELKRCKEENYDLAMRLAHQSEEKGAALMRNRDLQLEIDQLKHSLMKAEDDCKVERKHTLKLRHAMEQRPSQELLWELQQEKALLQARVQELEASVQEGKLDRSSPYIQVLEEDWRQALRDHQEQANTIFSLRKDLRQGEARRLRCMEEKEMFELQCLALRKDSKMYKDRIEAILLQMEEVAIERDQAIATREELHAQHARGLQEKDALRKQVRELGEKADELQLQVFQCEAQLLAVEGRLRRQQLETLVLSSDLEDGSPRRSQELSLPQDLEDTQLSDKGCLAGGGSPKQPFAALHQEQVLRNPHDAGLSSGEPPEKERRRLKESFENYRRKRALRKMQKGWRQGEEDRENTTGSDNTDTEGS
B2: Protein FAM9B (Homo sapiens), Q8IZU0 (parent)
chain: MAAWGKKHAGKDPVRDECEERNRFTETREEDVTDEHGEREPFAETDEHTGANTKKPEDTAEDLTAKRKRMKMDKTCSKTKNKSKHALRKKQLKRQKRDYIHSLKLLNVLEEYITDEQKEEEEEEGEEEELIRIFQEQQKKWQQYRSVRRERLKEMKLLRDQFVKALEDFEDLCDRVFSDEDSELDN
B3: Calcium-binding and coiled-coil domain-containing protein 2 (Homo sapiens), Q13137 (parent)
chain: MEETIKDPPTSAVLLDHCHFSQVIFNSVEKFYIPGGDVTCHYTFTQHFIPRRKDWIGIFRVGWKTTREYYTFMWVTLPIDLNNKSAKQQEVQFKAYYLPKDDEYYQFCYVDEDGVVRGASIPFQFRPENEEDILVVTTQGEVEEIEQHNKELCKENQELKDSCISLQKQNSDMQAELQKKQEELETLQSINKKLELKVKEQKDYWETELLQLKEQNQKMSSENEKMGIRVDQLQAQLSTQEKEMEKLVQGDQDKTEQLEQLKKENDHLFLSLTEQRKDQKKLEQTVEQMKQNETTAMKKQQELMDENFDLSKRLSENEIICNALQRQKERLEGENDLLKRENSRLLSYMGLDFNSLPYQVPTSDEGGARQNPGLAYGNPYSGIQESSSPSPLSIKKCPICKADDICDHTLEQQQMQPLCFNCPICDKIFPATEKQIFEDHVFCHSL
partner: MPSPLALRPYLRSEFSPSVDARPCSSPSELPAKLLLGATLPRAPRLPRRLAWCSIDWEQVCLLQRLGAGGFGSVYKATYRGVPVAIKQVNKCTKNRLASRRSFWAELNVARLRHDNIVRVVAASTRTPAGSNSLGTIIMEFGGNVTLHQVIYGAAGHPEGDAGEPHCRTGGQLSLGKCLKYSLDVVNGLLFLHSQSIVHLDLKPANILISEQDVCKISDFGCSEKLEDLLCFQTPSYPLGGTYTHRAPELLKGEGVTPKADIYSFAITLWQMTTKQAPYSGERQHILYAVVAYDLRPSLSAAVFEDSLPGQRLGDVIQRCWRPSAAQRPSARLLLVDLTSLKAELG
B4: Protein FRA10AC1 (Homo sapiens), Q70Z53 (parent)
chain: MHGHGGYDSDFSDDERCGESSKRKKRTVEDDLLLQKPFQKEKHGKVAHKQVAAELLDREEARNRRFHLIAMDAYQRHTKFVNDYILYYGGKKEDFKRLGENDKTDLDVIRENHRFLWNEEDEMDMTWEKRLAKKYYDKLFKEYCIADLSKYKENKFGFRWRVEKEVISGKGQFFCGNKYCDKKEGLKSWEVNFGYIEHGEKRNALVKLRLCQECSIKLNFHHRRKEIKSKKRKDKTKKDCEESSHKKSRLSSAEEASKKKDKGHSSSKKSEDSLLRNSDEEESASESELWKGPLPETDEKSQEEEFDEYFQDLFL
B5: Methylmalonyl-CoA epimerase, mitochondrial (Homo sapiens), Q96PE7 (parent)
chain: MARVLKAAAANAVGLFSRLQAPIPTVRASSTSQPLDQVTGSVWNLGRLNHVAIAVPDLEKAAAFYKNILGAQVSEAVPLPEHGVSVVFVNLGNTKMELLHPLGRDSPIAGFLQKNKAGGMHHICIEVDNINAAVMDLKKKKIRSLSEEVKIGAHGKPVIFLHPKDCGGVLVELEQA
partner: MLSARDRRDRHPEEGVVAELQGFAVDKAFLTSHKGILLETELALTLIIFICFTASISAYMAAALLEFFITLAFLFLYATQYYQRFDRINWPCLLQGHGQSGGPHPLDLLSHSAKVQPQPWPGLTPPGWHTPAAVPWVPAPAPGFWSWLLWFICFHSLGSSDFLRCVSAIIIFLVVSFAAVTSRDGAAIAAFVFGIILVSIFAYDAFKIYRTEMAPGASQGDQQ

Variants of: B1
Conditions: with pak5_human PAK5, Q9P286
Sequence of pak5_human PAK5, Q9P286 (Q9P286 whole entry, looked up): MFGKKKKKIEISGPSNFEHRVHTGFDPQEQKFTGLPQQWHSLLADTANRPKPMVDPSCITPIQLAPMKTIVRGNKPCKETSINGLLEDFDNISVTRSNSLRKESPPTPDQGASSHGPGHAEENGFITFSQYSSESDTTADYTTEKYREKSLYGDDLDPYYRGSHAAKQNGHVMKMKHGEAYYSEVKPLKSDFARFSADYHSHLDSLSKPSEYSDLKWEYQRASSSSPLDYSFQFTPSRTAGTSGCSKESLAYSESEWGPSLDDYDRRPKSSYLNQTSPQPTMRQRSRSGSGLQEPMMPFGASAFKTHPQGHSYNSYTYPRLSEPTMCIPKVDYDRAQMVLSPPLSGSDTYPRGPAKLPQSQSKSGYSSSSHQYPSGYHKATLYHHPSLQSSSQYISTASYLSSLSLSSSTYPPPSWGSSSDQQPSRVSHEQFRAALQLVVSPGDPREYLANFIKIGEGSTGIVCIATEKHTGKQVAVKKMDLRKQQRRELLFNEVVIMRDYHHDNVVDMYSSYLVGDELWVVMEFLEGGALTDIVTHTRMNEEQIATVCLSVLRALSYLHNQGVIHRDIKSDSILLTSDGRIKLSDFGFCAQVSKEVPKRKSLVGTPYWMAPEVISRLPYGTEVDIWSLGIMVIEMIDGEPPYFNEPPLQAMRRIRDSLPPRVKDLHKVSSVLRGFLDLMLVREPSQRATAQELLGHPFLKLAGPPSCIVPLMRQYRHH

Variant | effect of a mutation on the interaction
V385L | with no effect

Variants of: B1
Conditions: with zn572_human ZNF572, Q7Z3I7
Sequence of zn572_human ZNF572, Q7Z3I7 (Q7Z3I7 whole entry): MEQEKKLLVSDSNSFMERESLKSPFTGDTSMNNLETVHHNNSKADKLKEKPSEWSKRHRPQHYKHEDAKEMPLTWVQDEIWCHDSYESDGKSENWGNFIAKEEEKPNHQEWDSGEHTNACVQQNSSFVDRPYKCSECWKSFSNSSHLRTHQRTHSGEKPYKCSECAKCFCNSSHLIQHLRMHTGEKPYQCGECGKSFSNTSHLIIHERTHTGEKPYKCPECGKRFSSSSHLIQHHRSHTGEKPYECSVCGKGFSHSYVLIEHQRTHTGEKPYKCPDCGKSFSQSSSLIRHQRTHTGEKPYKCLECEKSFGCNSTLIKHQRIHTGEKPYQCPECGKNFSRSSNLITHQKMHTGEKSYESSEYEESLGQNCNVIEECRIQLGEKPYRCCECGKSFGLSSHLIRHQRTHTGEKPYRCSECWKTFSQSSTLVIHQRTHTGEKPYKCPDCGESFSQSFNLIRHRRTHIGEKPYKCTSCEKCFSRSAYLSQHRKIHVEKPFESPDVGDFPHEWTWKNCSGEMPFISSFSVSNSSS

Variant | effect of a mutation on the interaction
V385L | disrupting interaction strength

Variants of: B2
Conditions: with dapk2_human DAPK2, Q9UIK4
Sequence of dapk2_human DAPK2, Q9UIK4 (Q9UIK4 whole entry, looked up): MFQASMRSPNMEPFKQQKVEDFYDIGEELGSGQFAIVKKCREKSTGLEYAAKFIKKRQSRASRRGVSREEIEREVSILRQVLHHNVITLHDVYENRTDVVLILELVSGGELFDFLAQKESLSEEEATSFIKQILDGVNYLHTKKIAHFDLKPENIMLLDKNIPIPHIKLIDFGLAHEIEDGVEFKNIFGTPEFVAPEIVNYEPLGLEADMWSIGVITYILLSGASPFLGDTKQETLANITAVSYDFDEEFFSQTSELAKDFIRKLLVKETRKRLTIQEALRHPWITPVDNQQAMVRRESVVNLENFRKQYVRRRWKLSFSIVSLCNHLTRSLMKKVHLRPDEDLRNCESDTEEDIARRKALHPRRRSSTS

Variant | effect of a mutation on the interaction
R23H | with no effect

Variants of: B2
Conditions: with tr61b_human TRMT61B

Variant | effect of a mutation on the interaction
R23H | with no effect

Variants of: B2
Conditions: with pin4_human PIN4, Q9Y237
Sequence of pin4_human PIN4, Q9Y237 (Q9Y237 whole entry): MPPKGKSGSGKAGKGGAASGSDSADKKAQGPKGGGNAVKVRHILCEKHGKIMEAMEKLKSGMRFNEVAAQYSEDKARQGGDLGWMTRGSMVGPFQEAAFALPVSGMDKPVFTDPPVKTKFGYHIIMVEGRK

Variant | effect of a mutation on the interaction
R23H | with no effect

Variants of: B2
Conditions: with cc106_human CCDC106, Q9BWC9
Sequence of cc106_human CCDC106, Q9BWC9 (Q9BWC9 whole entry): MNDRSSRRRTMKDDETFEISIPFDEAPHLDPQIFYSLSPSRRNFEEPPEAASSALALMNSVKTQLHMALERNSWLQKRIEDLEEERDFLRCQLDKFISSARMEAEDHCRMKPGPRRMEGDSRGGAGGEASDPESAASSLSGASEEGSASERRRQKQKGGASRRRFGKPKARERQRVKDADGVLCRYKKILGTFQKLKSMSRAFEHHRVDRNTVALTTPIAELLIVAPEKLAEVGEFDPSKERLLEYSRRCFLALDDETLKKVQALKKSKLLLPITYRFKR

Variant | effect of a mutation on the interaction
R23H | with no effect

Variants of: B2
Conditions: with eftu_human TUFM

Variant | effect of a mutation on the interaction
R23H | with no effect

Variants of: B2
Conditions: with xrcc4_human XRCC4, Q13426
Sequence of xrcc4_human XRCC4, Q13426 (Q13426 whole entry): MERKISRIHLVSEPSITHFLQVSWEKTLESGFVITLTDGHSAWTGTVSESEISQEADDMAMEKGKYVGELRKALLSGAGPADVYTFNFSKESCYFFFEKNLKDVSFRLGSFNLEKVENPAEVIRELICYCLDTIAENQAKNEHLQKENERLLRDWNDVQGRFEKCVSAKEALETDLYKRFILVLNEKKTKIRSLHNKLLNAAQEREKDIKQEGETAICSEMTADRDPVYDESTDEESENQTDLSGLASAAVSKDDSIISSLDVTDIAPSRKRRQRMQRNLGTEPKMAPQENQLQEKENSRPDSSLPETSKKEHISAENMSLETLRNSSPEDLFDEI

Variant | effect of a mutation on the interaction
R23H | with no effect

Variants of: B2
Conditions: with daxx_human DAXX

Variant | effect of a mutation on the interaction
R23H | with no effect

Variants of: B3
Conditions: with mos_human MOS

Variant | effect of a mutation on the interaction
E222K | with no effect

Variants of: B4
Conditions: with tri41_human TRIM41, Q8WV44

Variant | effect of a mutation on the interaction
S251F | with no effect

Variants of: B5
Conditions: with cklf5_human CMTM5, Q96DZ9

Variant | effect of a mutation on the interaction
A76V | with no effect
